Source: article PMC9697189, “Peptide-Based [^68Ga]Ga Labeled PET Tracer for Tumor Imaging by Targeting Tumor-Associated Macrophages” (Pharmaceutics, 2022)
Peptide text beside a SMILES is read from it. * marks the point of attachment. DOTA = O=C(O)CN1CCN(CC(=O)O)CCN(CC(=O)*)CCN(CC(=O)O)CC1

Experiments:
in vitro = in vitro ADME, bovine; conditions: serum
Method: DOTA-M2pep (80 μg) was dissolved in 200 μL of purified water in a small vial. About 200 μL of [^68Ga]GaCl3 (44.4–59.2 MBq) was added, and 1 M sodium acetate buffer was used to adjust the final pH to 4.0–4.5. After incubation in a water bath at 55 °C for 30 min, the radiolabeling reaction was completed, and the mixture was collected. Radio-HPLC was performed to confirm the radiochemical purity of [^68Ga]Ga-DOTA-M2pep. The mobile phase was composed of solvent A, acetonitrile (ACN) solution, and solvent B, 0.1% trifluoroacetic acid (TFA) in water. The gradient solvent system was set up as follows: 0–8 min, 70% A and 30% B; 8–15 min, 100% A and 0% B; 15–17 min, 5% A and 95% B; 17–20 min, 95% A and 5% B at a flow rate of 1.0 mL/min. To investigate the in vitro stability, 3.7 MBq [^68Ga]Ga-DOTA-M2pep (100 μL) was incubated in the same volume of phosphate-buffered saline (PBS, pH = 7.4) or bovine serum at 37 °C, respectively. The radiochemical purity was assessed at 15, 30, 60, and 120 min. All experiments were performed in triplicate.

in vivo [1] = test: in vivo; design: species or system C57B/L6 mice; conditions: male, C57B/L6, mouse, iv, 3.7 MBq, total radioactivity
Method: (§1) The male C57B/L6 mice (6–8 weeks old, 20–25 g) were purchased from HFK bioscience (Beijing, China) and divided randomly into the experimental and blocking groups. All the studies were approved by the experimental animal ethics committee of Sichuan University and were conducted in compliance with the institutional guidelines for the care and use of laboratory animals. The C57B/L6 mice were injected subcutaneously with 5 × 10^6 B16-F10 cells in 100 µL of PBS into the forelimb of the animals under anesthesia with isoflurane. After 7–10 days, the B16F10 tumor-bearing mice were established and prepared for imaging and biodistribution when xenografts grew to 500–1000 mm^3.
(§2) PET scans were performed using a micro-PET/CT scanner (Inviscan, IRIS, Paris, France). [^68Ga]Ga-DOTA-M2pep (3.7 MBq) was administered to the B16F10 tumor-bearing mice (n = 4) via the tail vein. At 30 min, 1 h, and 2 h post-injection, the tumor-bearing mice were imaged with the micro-PET/CT scan under anesthesia with 2% isoflurane. Each scan was completed within 15 min. For the blocking scans, B16F10 tumor-bearing mice (n = 3) were pretreated with free M2pep (10 mM) in 100 μL saline by intravenous injection 60 min before administration of [^68Ga]Ga-DOTA-M2pep (3.7 MBq). Micro-PET/CT scans were acquired at 60 min post-injection as described above. The obtained images were reconstructed using three-dimensional ordered-subset expectation maximization (3D OSEM) and then processed using Osirix MD. Regions of interest (ROIs) were manually drawn over the tumor regions and organs, and quantitative analyses were calculated. Immunofluorescence staining was performed 24 h after micro-PET scan to determine the [^68Ga]Ga-DOTA-M2pep targeting efficiency. The harvested tumors were fixed with paraformaldehyde for 24 h, then were frozen and sectioned at 10 μm, followed by treatment with Fitc-M2pep, and staining with M2 TAMs marker PE-CD206 antibody and DAPI.

[2] = test system: B16F10 tumor-bearing mice; test: in vivo; design: species or system C57B/L6 mice; conditions: mouse
Method: as §1, §2

in vivo [3] = test: in vivo; design: species or system C57B/L6 mice; conditions: male, C57B/L6, mouse, iv, 1.11 MBq, total radioactivity
Method: The male C57B/L6 mice (6–8 weeks old, 20–25 g) were purchased from HFK bioscience (Beijing, China) and divided randomly into the experimental and blocking groups. All the studies were approved by the experimental animal ethics committee of Sichuan University and were conducted in compliance with the institutional guidelines for the care and use of laboratory animals. The C57B/L6 mice were injected subcutaneously with 5 × 10^6 B16-F10 cells in 100 µL of PBS into the forelimb of the animals under anesthesia with isoflurane. After 7–10 days, the B16F10 tumor-bearing mice were established and prepared for imaging and biodistribution when xenografts grew to 500–1000 mm^3. The B16F10 tumor-bearing mice (n = 3) were intravenously administered [^68Ga]Ga-DOTA-M2pep (1.11 MBq) for biodistribution studies. At 5, 15, 30, 60 min, and 2 h post-injection, mice were euthanized, and the organs of interest, including the blood, heart, lungs, liver, kidneys, spleen, stomach, intestine, muscle, bone, brain, and tumor, were harvested. The samples were then weighed and counted by an automatic γ-counter (PerkinElmer Wizard, Shelton, CT, USA). In the blocking group, the B16F10 tumor-bearing mice (n = 3) were pretreated with free M2pep (10 mM) in 100 μL saline by intravenous injection 60 min before administration of [^68Ga]Ga-DOTA-M2pep (1.11 MBq). The organs of interest were harvested, weighed, and counted as described above at 60 min post-injection. The percentage of tracer uptake was calculated as the percentage of injected dose per gram of tissue (%ID/g), which was decay-corrected to the start time of counting. The percentage reflected the activity associated with tissues per organ weight per actual injected dose.

With `CC(C)[C@H](NC(=O)CNC(=O)[C@H](Cc1c[nH]c2ccccc12)NC(=O)[C@@H]1CCCN1C(=O)[C@H](CC(=O)O)NC(=O)[C@H](CCC(N)=O)NC(=O)[C@H](CCC(=O)O)NC(=O)[C@H](Cc1ccc(O)cc1)NC(=O)CN1CCN(CC(=O)O)CCN(CC(=O)O)CCN(CC(=O)O)CC1)C(=O)N[C@@H](CCCCN)C(=O)N[C@@H](Cc1c[nH]c2ccccc12)C(=O)N[C@@H](Cc1c[nH]c2ccccc12)C(=O)N[C@@H](Cc1ccc(O)cc1)C(=O)O` [[^68Ga]Ga-DOTA-M2pep, metal not drawn] ({DOTA}-YEQDPWGVKWWY-OH) the remaining at 2 h, 18.5 MBq/mL (in vitro) was > 85%, the tissue to tissue ratio at 0.5 h (in vivo [1]) was 3.19 ± 0.22 and the tissue to tissue ratio at 2 h (in vivo [1]) was 3.12 ± 0.83. It also gave a tissue uptake at 0.5 h (in vivo [1]) of 2.72 ± 0.07 %ID/g, a tissue uptake at 1 h (in vivo [1]) of 2.93 ± 0.2 %ID/g and a tissue uptake at 2 h (in vivo [1]) of 2.47 ± 0.13 %ID/g. For the same compound, the “tumor/muscle ratio (PET)” value [2] was 3.35 ± 0.27, the tissue uptake at 5 min (in vivo [3]; blood uptake) was 10.5 ± 2.2 %ID/g and the tissue uptake at 1 h (in vivo [3]; blood uptake) was 1.84 ± 0.02 %ID/g. The tissue uptake at 5 min (in vivo [3]; kidney uptake (peak)) was 12.7 ± 3.71 %ID/g, the tissue uptake at 1 h (in vivo [3]; liver uptake) was 0.96 ± 0.02 %ID/g and the tissue uptake at 1 h (in vivo [3]; tumor uptake) was 3.35 ± 0.34 %ID/g. For the same compound, the tissue uptake at 2 h (in vivo [3]; tumor uptake) was 3.12 ± 0.27 %ID/g.
